Results reported in paper doi:10.1101/433839.

How the values were obtained:
Y118A SsuE = Y118A SsuE (UniProt P80644); assay: other fluorescence titration
[1] = molecular target: wild-type SsuE (NADPH-dependent FMN reductase of the alkanesulfonate monooxygenase system) (UniProt P80644); assay: other fluorescence titration

Kd (Y118A SsuE): 122 nM | Kd [1]: 40 nM
B1: wild-type SsuD (FMNH2-dependent alkanesulfonate monooxygenase) (enzyme)
chain: MSLNMFWFLPTHGDGHYLGTEEGSRPVDHGYLQQIAQAADRLGYTGVLIPTGRSCEDAWLVAASMIPVTQRLKFLVALRPSVTSPTVAARQAATLDRLSNGRALFNLVTGSDPQELAGDGVFLDHSERYEASAEFTQVWRRLLQRETVDFNGKHIHVRGAKLLFPAIQQPYPPLYFGGSSDVAQELAAEQVDLYLTWGEPPELVKEKIEQVRAKAAAHGRKIRFGIRLHVIVRETNDEAWQAAERLISHLDDETIAKAQAAFARTDSVGQQRMAALHNGKRDNLEISPNLWAGVGLVRGGAGTALVGDGPTVAARINEYAALGIDSFVLSGYPHLEEAYRVGELLFPLLDVAIPEIPQPQPLNPQGEAVANDFIPRKVAQS
